Laboratory results: paper doi:10.1101/2025.09.29.679184

How the values were obtained:
[1] = molecular target: N-terminally Avi-tagged Lotus SYMRK kinase 4D (Lotus japonicus); assay: BLI
[2] = molecular target: N-terminally Avi-tagged Lotus SYMRK kinase 4A (Lotus japonicus); assay: BLI

“Lotus japonicus Early Phosphorylated Protein 1a (EPP1a) WT, purified (natural protein)” was tested, and the KD1 (2:1 heterogenous ligand fit) [1] was 452 nM, the KD2 (2:1 heterogenous ligand fit) [1] was 1 µM and the KD1 (2:1 heterogenous ligand fit) [2] was 2.2 µM. It also gave a KD2 (2:1 heterogenous ligand fit) [2] of 6.4 µM.
